The text below walks through data of the supplement of paper PMC7125110.

To fix the notation:
B1: glmS ribozyme (parent)
chain: AUAAAAGCGCCAGAACUACAGAAAUGUAGUUGACGAGGAGGAGGUUUAUCGAAUUUUCGGCGGAUGCCUCCAAA

± gives the standard error. For some of these results: Variants at the floor of the assay were thinned out.

Details in all cases: with glucosamine-6-phosphate
Data set [1] covers variants of B1. The data set can be described thus: kcat; higher = faster cleavage; RNA array. The essentials:
(§1)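 Barcoded ribozyme variants, transcribed in situ by E. coli RNA polymerase on sequenced MiSeq chips, were followed via a hybridised Cy3 probe at 37 °C. Glucosamine-6-phosphate ranged from 40 μM to 10 mM in HEPES/KCl/Mg(OAc)2 buffer. kobs came from decay fits to per-tile medians, and kcat and KM from weighted Michaelis–Menten fits.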

Data set [2] covers variants of B1. The data set can be described thus: KM; higher = weaker cofactor use; RNA array. The essentials:
as §1

Variants of B1 are the subject of data set [3]. The data set can be described thus: self-cleavage kobs at 640 uM GlcN6P; higher = faster cleavage; RNA array. A digest of the protocol:
as §1

The variants in data set [4] derive from B1. The data set can be described thus: self-cleavage kobs at 2500 uM GlcN6P; higher = faster cleavage; RNA array. A digest of the protocol: as §1
Data set [5] covers variants of B1. The data set can be described thus: self-cleavage kobs at 10000 uM GlcN6P; higher = faster cleavage; RNA array. A digest of the protocol: as §1
Data set [6] covers variants of B1. The data set can be described thus: self-cleavage kobs at 160 uM GlcN6P; higher = faster cleavage; RNA array. The essentials: as §1
In data set [7] the parent is B1. Briefly: self-cleavage kobs at 40 uM GlcN6P; higher = faster cleavage; RNA array. The essentials: as §1

As usually defined, the kcat is the maximal rate divided by the concentration of active sites. The KM is the concentration of substrate that gives half-maximal velocity. As to AUAAAAGCGCCAGAACUACAGAAAUGUAUUUGACGAGGAGGAGGUUUAUCGAAUUUUGGGCGGAUGCCUCCAAA [G29U C58G], the kcat with glucosamine-6-phosphate [1] turned out to be 8.52e-05 ± 7.7e-06 s⁻¹. Further, in the data set with glucosamine-6-phosphate [2], the KM amounted to 752 ± 370 µM. Further, the “self-cleavage kobs at 640 uM GlcN6P” value with glucosamine-6-phosphate [3] stood at 3.31e-05 ± 1.6e-05 s⁻¹. In addition, in the data set with glucosamine-6-phosphate [4], the “self-cleavage kobs at 2500 uM GlcN6P” value is 8.3e-05 ± 1.9e-05 s⁻¹. In the data set with glucosamine-6-phosphate [5], the “self-cleavage kobs at 10000 uM GlcN6P” value came to 7.67e-05 ± 9.9e-06 s⁻¹.

On to AUAAAAGCGCAAGAACUACAGAAAUGUAGUUGACGAGGAGGAGGUUUAUCGAAUUUACGGCGGAUGCCUCCAAA [C11A U57A], for which the turnover number (kcat) in the data set with glucosamine-6-phosphate [1] was < 1e-05 s⁻¹.

As for AUAAAAGCGCCAGAUCUACAGAAAUGUAGUUGACGAGGAGGAGGUAUAUCGAAUUUUCGGCGGAUGCCUCCAAA [A15U U46A], in the data set with glucosamine-6-phosphate [1], the kcat stood at 0.000378 ± 2.9e-05 s⁻¹. Further, the KM with glucosamine-6-phosphate [2] worked out at 2050 ± 300 µM. Further, the “self-cleavage kobs at 160 uM GlcN6P” value in the data set with glucosamine-6-phosphate [6] stood at 3.16e-05 ± 1.1e-05 s⁻¹. Moreover, the “self-cleavage kobs at 640 uM GlcN6P” value in the data set with glucosamine-6-phosphate [3] came out at 8.53e-05 ± 9.5e-06 s⁻¹. Moreover, the “self-cleavage kobs at 2500 uM GlcN6P” value with glucosamine-6-phosphate [4] worked out at 0.000225 ± 2.3e-05 s⁻¹. Also, in the data set with glucosamine-6-phosphate [5], the “self-cleavage kobs at 10000 uM GlcN6P” value was found to be 0.000303 ± 3.2e-05 s⁻¹.

Turning to AUAAAAGCGCCAGAACUACAGAAAUGUAGUUGUCGAGGAGAAGGUUUAUCGAAGUUUCGGCGGAUGCCUCCAAA [A33U G41A U54G], the kcat in the data set with glucosamine-6-phosphate [1] is 3.66e-05 ± 1.4e-06 s⁻¹. Besides, in the data set with glucosamine-6-phosphate [2], the KM was 2720 ± 360 µM. Besides, in the data set with glucosamine-6-phosphate [5], the “self-cleavage kobs at 10000 uM GlcN6P” value came to 2.88e-05 ± 1.2e-05 s⁻¹.

As for AUAAAAGCGCCAGUACUACAGAAAUGUAGUUGUCGAGGAGGGGGUUUAUCGAAUUUUCGGCGGAUGCCUCCAAA [A14U A33U A42G], the catalytic constant (kcat) with glucosamine-6-phosphate [1] stood at 9.54e-05 ± 3.1e-05 s⁻¹. In the data set with glucosamine-6-phosphate [4], the “self-cleavage kobs at 2500 uM GlcN6P” value was found to be 7.08e-05 ± 1.9e-05 s⁻¹. Also, the “self-cleavage kobs at 10000 uM GlcN6P” value with glucosamine-6-phosphate [5] was found to be 7.49e-05 ± 2.6e-05 s⁻¹.

As for AUAAAAGCGCCCGAACUACAGAAAUGUAGUUGACGAGGACGAGGUUUAUCGAAUUUUCGGCGGAUGCCUCCAAA [A12C G40C], the kcat with glucosamine-6-phosphate [1] stood at 0.000942 ± 0.00014 s⁻¹. For the same variant, the KM with glucosamine-6-phosphate [2] was 2310 ± 620 µM. In addition, in the data set with glucosamine-6-phosphate [7], the “self-cleavage kobs at 40 uM GlcN6P” value was found to be 3.01e-05 ± 9.1e-06 s⁻¹. For the same variant, in the data set with glucosamine-6-phosphate [6], the “self-cleavage kobs at 160 uM GlcN6P” value is 5.51e-05 ± 8.5e-06 s⁻¹. The “self-cleavage kobs at 640 uM GlcN6P” value in the data set with glucosamine-6-phosphate [3] worked out at 0.0002 ± 6.3e-05 s⁻¹. Besides, in the data set with glucosamine-6-phosphate [4], the “self-cleavage kobs at 2500 uM GlcN6P” value came out at 0.000666 ± 0.00012 s⁻¹. For the same variant, in the data set with glucosamine-6-phosphate [5], the “self-cleavage kobs at 10000 uM GlcN6P” value was 0.000746 ± 6.8e-05 s⁻¹.

Turning to AUAAAAGCGCCAGAACUACAGAAAUGUAGUUGAUGAGGAGGAGGUUUAUAGAAUUUUCGGCGGAUGCCUCCAAA [C34U C50A], the kcat in the data set with glucosamine-6-phosphate [1] is 1.45e-05 ± 5.7e-06 s⁻¹.

As for AUAAAGGCGACAGAACUACAGAAAUGUAGUUGACGAGGAGGAGGUUUAUCGAAUUUUCGGCGGAUGCCUCCAAA [A6G C10A], the kcat with glucosamine-6-phosphate [1] was < 1e-05 s⁻¹. Besides, the “self-cleavage kobs at 40 uM GlcN6P” value with glucosamine-6-phosphate [7] was < 1e-05 s⁻¹. Besides, in the data set with glucosamine-6-phosphate [5], the “self-cleavage kobs at 10000 uM GlcN6P” value is < 1e-05 s⁻¹.

Regarding AUAAAAGCGCAAGAACUACAGAAAUGUAUUUGACGAGGAGGAGGUUUAUCGAAUUUUCGGCGGAUGCCUCCAAA [C11A G29U], in the data set with glucosamine-6-phosphate [1], the kcat came out at 3.97e-05 ± 4.4e-06 s⁻¹. For the same variant, the “self-cleavage kobs at 2500 uM GlcN6P” value with glucosamine-6-phosphate [4] was 3.72e-05 ± 1.1e-05 s⁻¹. Moreover, the “self-cleavage kobs at 10000 uM GlcN6P” value with glucosamine-6-phosphate [5] turned out to be 3.56e-05 ± 8.9e-06 s⁻¹.

As for AUAAAAGCGCCAGAACUACAGAAAUGUAGGUGACGAGGAGGAGGUUUAUCGAAUUUUCGGCGGAUGCGUCCAAA [U30G C68G], the kcat with glucosamine-6-phosphate [1] is 3.09e-05 ± 2.2e-06 s⁻¹. Further, the KM with glucosamine-6-phosphate [2] was determined as 120 ± 57 µM. The “self-cleavage kobs at 2500 uM GlcN6P” value with glucosamine-6-phosphate [4] was found to be 3.26e-05 ± 1.2e-05 s⁻¹. Besides, the “self-cleavage kobs at 10000 uM GlcN6P” value in the data set with glucosamine-6-phosphate [5] amounted to 2.71e-05 ± 1.3e-05 s⁻¹.

As to AUAAAAGCGCAAGAACUACAGAAAUGUAGAUGACGAGGAGGAGGUUUAUUGAAUUUUCGGCGGAUGCCUCCAAA [C11A U30A C50U], in the data set with glucosamine-6-phosphate [1], the kcat came out at 2.21e-05 ± 3.2e-06 s⁻¹.
